B1: Anti-c-Met/anti-EGFR bispecific antibody A (bispecific antibody, human IgG2, kappa)
heavy: EVQLVESGGGLVQPGGSLRLSCAASGFTFTDYYMSWVRQAPGKGLEWLGFIRNKANGYTTEYSASVKGRFTISRDNSKNTLYLQMNSLRAEDTAVYYCARDNWFAYWGQGTLVTVSSASTKGPSVFPLAPCSRSTSESTAALGCLVKDYFPEPVTVSWNSGALTSGVHTFPAVLQSSGLYSLSSVVTVPSSNFGTQTYTCNVDHKPSNTKVDKTVERKCCVECPPCPAPPVAGPSVFLFPPKPKDTLMISRTPEVTCVVVDVSHEDPEVQFNWYVDGVEVHNAKTKPREEQFNSTFRVVSVLTVVHQDWLNGKEYKCKVSNKGLPAPIEKTISKTKGQPREPQVYTLPPSREEMTKNQVSLTCLVKGFYPSDIAVEWESNGQPENNYKTTPPMLDSDGSFFLYSKLTVDKSRWQQGNVFSCSVMHEALHNHYTQKSLSLSPGKGGGGSGGGGSEVQLLESGGGLVQPGGSLRLSCAASGFTFSNYDMSWVRQAPGKCLEWVSGISHSSGSKYYADSVKGRFTISRDNSKNTLYLQMNSLRAEDTAVYYCAKDATPRPLKPFDYWGQGTLVTVSSGGGGSGGGGSGGGGSQSVLTQPPSASGTPGQRVTISCTGSSSNIGNNDVSWYQQLPGTAPKLLIYDDNKRPSGVPDRFSGSKSGTSASLAISGLRSEDEADYYCGSWDASLNAYVFGCGTKLTVLG
light: DIQMTQSPSSLSASVGDRVTITCKSSQSLLASGNQNNYLAWYQQKPGKAPKMLIIWASTRVSGVPSRFSGSGSGTDFTLTISSLQPEDFATYYCQQSYSRPYTFGQGTKVEIKRTVAAPSVFIFPPSDEQLKSGTASVVCLLNNFYPREAKVQWKVDNALQSGNSQESVTEQDSKDSTYSLSSTLTLSKADYEKHKVYACEVTHQGLSSPVTKSFNRGEC
notes: Anti-c-Met antibody A (IgG2) with an anti-EGFR scFv (VH-linker-VL) linked to the C-terminus of its Fc; also called c-Met bispecific antibody A
B2: Anti-c-Met antibody A (antibody, human IgG2, kappa, V domains shown)
VH: EVQLVESGGGLVQPGGSLRLSCAASGFTFTDYYMSWVRQAPGKGLEWLGFIRNKANGYTTEYSASVKGRFTISRDNSKNTLYLQMNSLRAEDTAVYYCARDNWFAYWGQGTLVTVSS
VL: DIQMTQSPSSLSASVGDRVTITCKSSQSLLASGNQNNYLAWYQQKPGKAPKMLIIWASTRVSGVPSRFSGSGSGTDFTLTISSLQPEDFATYYCQQSYSRPYTFGQGTKVEIKR
notes: IgG2 antibody

Target: T1, c-Met on EBC-1 cells (UniProt P08581 25-1390, limits assumed)
T1 construct: whole, on cells; EBC-1 is a human lung cancer line; also called c-Met on the cell surface
T1 sequence (P08581 25-1390 limits assumed): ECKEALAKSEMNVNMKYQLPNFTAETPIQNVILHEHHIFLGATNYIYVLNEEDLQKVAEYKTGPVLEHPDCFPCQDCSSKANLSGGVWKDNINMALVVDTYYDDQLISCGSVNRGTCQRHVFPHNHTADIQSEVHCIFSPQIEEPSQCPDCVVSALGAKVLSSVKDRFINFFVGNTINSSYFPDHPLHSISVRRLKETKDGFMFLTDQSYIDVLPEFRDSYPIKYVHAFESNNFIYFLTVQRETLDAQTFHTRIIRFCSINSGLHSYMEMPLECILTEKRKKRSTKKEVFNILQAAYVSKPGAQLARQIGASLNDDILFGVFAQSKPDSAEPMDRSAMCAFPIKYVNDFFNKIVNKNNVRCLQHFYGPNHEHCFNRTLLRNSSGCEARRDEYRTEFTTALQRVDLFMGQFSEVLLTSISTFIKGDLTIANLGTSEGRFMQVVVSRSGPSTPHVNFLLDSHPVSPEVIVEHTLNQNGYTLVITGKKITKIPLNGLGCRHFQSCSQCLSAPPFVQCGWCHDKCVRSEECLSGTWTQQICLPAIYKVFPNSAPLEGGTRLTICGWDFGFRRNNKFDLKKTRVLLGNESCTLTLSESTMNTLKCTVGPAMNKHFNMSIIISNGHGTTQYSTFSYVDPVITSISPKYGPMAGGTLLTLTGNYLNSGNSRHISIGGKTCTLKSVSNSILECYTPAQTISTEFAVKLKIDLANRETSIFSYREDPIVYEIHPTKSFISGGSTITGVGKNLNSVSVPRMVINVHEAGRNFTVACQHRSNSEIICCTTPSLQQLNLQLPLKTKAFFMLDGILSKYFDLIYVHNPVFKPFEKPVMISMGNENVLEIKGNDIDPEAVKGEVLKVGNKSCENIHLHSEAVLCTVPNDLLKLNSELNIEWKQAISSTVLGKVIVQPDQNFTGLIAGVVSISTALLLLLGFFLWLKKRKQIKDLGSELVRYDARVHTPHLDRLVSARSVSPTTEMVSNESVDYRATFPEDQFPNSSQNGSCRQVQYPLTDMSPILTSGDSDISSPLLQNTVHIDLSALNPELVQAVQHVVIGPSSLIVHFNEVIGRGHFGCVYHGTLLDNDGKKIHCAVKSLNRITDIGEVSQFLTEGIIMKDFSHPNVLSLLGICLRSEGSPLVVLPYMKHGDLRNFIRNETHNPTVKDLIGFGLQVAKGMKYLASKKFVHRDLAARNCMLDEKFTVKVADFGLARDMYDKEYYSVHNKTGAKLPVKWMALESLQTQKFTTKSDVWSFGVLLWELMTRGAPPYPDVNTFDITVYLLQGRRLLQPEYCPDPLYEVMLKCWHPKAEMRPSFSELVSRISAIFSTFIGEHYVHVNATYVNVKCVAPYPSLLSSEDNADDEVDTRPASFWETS
Assay: flow cytometry on EBC-1 cells; antibody bound at pH 7.4, cells fixed, then buffers of pH 1.5 to 7.4
Description: In order to examine the degree of influence of pH conditions on the binding of anti-c-Met antibody and c-Met, the antibody was reacted with c-Met to form a binding therebetween, and then, treated with buffer with various pH to change the pH conditions, and then, the amount of the antibody which maintain the binding to the antigen (c-Met) at a certain pH was measured.
In particular, EBC-1 cells (ATCC) were counted and seeded in e-tubes at the amount of about 3×10⁵ cells per tube. As a medium, RPMI-1640 (Gibco) was employed. The cell culture was washed with phosphate buffer saline (PBS; pH 7.4) to remove the medium, and treated with each of c-Met antibodies A, B, and C, and c-Met bispecific antibody A, provided in Example 1, at the amount of 1 μg/ml per a tube, and then, kept in ice for 30 minutes. The obtained cells were treated with 4% formaldehyde for 10 minutes to be fixed. After washing with PBS(pH7.4), the cells treated with FACS buffer with various pH (0.2%(v/v) FBS (Fetal bovine serum) in PBS, pH 1.5, 2.0, 2.5, 3.0, 4.0, 5.0, 6.0, or 7.4) and kept in ice for 5 minutes. […] The c-Met antibody attached to cell surface was quantified by Flow cytometry (BD, FACS Cantoll).

Binder	binding result
B1	binds
B2	binds

Reference: US20160161500A1, “METHOD OF SCREENING AN ANTIBODY” (SAMSUNG ELECTRONICS CO., LTD., priority 2014, published 2016)
